Data on five molecules can be found in patent publication US20230242653A1 (TENEOBIO, published 2023).

One experiment has as its target T1, IL-9R (R&D Systems) (UniProt Q01113 41-270, limits assumed).
T1 sequence (looked up): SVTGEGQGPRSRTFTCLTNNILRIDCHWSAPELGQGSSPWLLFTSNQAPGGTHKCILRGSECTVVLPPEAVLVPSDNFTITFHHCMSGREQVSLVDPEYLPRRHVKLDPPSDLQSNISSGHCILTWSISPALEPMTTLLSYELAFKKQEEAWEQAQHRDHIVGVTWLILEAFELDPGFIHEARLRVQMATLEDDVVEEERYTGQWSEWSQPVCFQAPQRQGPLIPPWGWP
The experiment is described as follows: Octet BLI off-rate analysis, antibody on AHC sensors. Here is the method: (§1) All off-rate measurements were performed on an Octet Qk384 instrument (ForteBio), in 96-well microplates at 25° C. using anti-human IgG Fc capture (AHC, 18-5005) sensors with a shake speed of 1000 rpm. For off-rate determination, the antibodies were loaded on the AHC sensors at 5 µg/mL. Following a short baseline in kinetics buffer (0.02% Tween20, 0.1% BSA, 0.05% sodium azide, 1X PBS). Offrate measurements were done for the following: human IL-2Rβ (AcroBiosystems), human IL- 2Ry (Sino Biological), cynomolgus IL-2Rβ (Sino Biological), cynomolgus IL-2Rγ (expressed and purified in house using ExpiCHO expression system followed by Ni-NTA His-tag purification), mouse IL-2Rγ (Sino Biological), mouse IL-2Rβ (Sino Biological), human IL-2Rα (Sino Biological), IL-4R (Sino Biological), IL-7R (Sino Biological), IL-9R (R&D Systems) and IL-21R (Sino Biological). The following antibodies were used as positive controls to verify target binding and reagent quality: anti-human IL-9R (R&D Systems), anti-human IL-21R (R&D Systems), anti-human IL-7R (R&D Systems) and anti-human IL-4Ra (R&D Systems). The loaded sensors were then submerged in wells containing antigen at 100 nM concentration for association step. Dissociation was monitored in kinetics buffer. The capture surfaces were regenerated for 60 s. ForteBio data analysis software was used to fit the data to a 1:1 binding model to extract an association rate and dissociation rate.

Experiment [1] concerns the target T2, human IL-2Rα (Sino Biological) (human, UniProt P01589 22-213, limits assumed).
T2 construct: also called IL2RA; IL-2RA
T2 sequence: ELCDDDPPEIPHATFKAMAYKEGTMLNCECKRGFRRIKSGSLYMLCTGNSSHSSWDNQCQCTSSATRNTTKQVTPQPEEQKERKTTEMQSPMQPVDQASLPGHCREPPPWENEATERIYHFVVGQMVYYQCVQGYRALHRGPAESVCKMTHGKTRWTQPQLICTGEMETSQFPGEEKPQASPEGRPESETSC
Described as above. Here is the method:
as §1

For a further experiment, the target named is IL-21R (Sino Biological) (UniProt Q9HBE5 20-232). The description is as above. As for the experimental part: as §1
A further experiment addresses T3, IL-4R (Sino Biological) (UniProt P24394 26-232).
T3 construct: also called IL-4Ra
T3 sequence (looked up): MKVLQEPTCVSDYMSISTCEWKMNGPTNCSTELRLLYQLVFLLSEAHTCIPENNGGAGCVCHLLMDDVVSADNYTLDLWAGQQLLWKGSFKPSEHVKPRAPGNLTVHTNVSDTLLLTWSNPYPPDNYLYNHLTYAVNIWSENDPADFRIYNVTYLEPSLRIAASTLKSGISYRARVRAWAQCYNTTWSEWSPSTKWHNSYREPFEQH
The description is as above. Here is the method:
as §1

Another experiment has as its target T4, IL-7R (Sino Biological) (UniProt P16871 21-239).
T4 sequence (looked up): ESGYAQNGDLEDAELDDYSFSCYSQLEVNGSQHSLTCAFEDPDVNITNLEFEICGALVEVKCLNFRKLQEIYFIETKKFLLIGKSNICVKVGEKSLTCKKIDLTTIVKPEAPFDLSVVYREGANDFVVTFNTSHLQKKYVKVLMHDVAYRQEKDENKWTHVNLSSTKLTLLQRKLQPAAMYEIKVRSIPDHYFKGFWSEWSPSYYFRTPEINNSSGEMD
The description is as above. Here is the method:
as §1

Experiment [2] has as its target T5, human IL-2Rβγ receptor (IL-2RB / IL-2RG) on human T-cells (human, UniProt P14784 27-551; P31785 23-369).
T5 construct: also called IL2RB/IL2RG dimeric receptor complex
T5 sequence 1: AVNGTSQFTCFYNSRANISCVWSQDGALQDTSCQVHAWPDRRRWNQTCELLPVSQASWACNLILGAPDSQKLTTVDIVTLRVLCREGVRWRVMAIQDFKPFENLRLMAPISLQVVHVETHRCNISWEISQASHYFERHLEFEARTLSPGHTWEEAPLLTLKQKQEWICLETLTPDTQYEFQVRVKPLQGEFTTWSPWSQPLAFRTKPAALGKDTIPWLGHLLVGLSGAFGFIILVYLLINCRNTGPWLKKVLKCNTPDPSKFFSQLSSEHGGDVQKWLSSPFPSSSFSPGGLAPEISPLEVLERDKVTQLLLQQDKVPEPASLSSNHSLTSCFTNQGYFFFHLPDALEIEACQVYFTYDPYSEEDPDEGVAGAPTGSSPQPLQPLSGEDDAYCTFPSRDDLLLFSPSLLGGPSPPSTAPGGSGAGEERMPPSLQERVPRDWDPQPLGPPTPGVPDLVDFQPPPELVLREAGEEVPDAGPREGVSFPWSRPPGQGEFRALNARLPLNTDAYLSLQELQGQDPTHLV
T5 sequence 2: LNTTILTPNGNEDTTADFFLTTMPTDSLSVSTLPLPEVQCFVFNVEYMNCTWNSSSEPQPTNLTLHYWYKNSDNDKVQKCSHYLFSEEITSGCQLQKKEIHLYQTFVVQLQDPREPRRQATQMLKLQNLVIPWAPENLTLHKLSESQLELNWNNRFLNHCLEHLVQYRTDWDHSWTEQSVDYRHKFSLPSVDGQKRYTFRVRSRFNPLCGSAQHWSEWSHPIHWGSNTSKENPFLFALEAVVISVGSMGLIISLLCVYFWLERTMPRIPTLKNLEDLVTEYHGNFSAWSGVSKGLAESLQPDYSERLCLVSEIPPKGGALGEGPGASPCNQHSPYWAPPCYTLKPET
Briefly: flow cytometry, human CD4+ T-cells, anti-human IgG-PE detection, gMFI as fold over secondary-only background. Here is the method:
(§2) All washes and dilutions of cells, antibodies, and reagents were performed using flow buffer (1X PBS, 1% BSA, 0.1% NaN3, pH 7.4). Staining was performed in a round-bottom 96-well plate (Corning) seeded at 100,000 cells/well and all incubations were performed at 4° C. or on ice. […] The cells were washed twice with 200 µL flow buffer. The cells were then incubated for 30 minutes with detection antibody (Goat F(ab′)2 Anti-Human IgG-PE, Southern Biotech) at 0.625 µg/mL in flow buffer. Following 2 more washes, the cells were resuspended in a final volume of 150 µL of flow buffer. The cells were analyzed on a BD FACSCelesta or a Guava easyCyte 8-HT flow cytometer. At least 3000 events were collected, and PE geometric mean fluorescence intensity was plotted as a fold over background (cells incubated with secondary detection antibody only). In some secondary screens involving human or cynomolgus PBMCs, an additional CD4 antibody (BioLegend) and/or CD8 antibody (BioLegend) was included to further characterize cell binding.

In experiment [3] the target is T5, human IL-2Rβγ receptor (IL-2RB / …). Briefly: flow cytometry, human CD8+ T-cells, anti-human IgG-PE detection, gMFI as fold over secondary-only background. As for the experimental part:
as §2
In general terms: In flow cytometry, cells or beads pass a laser one at a time.

Sequence of IL-21R (Sino Biological) (Q9HBE5 20-232 limits assumed): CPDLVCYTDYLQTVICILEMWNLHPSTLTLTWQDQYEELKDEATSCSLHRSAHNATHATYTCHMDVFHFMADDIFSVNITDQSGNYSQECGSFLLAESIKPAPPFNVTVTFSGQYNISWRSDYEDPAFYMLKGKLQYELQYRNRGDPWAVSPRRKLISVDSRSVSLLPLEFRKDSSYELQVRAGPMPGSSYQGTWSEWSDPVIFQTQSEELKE

B1: IL2RB_F09G**IL2RG_F16B (bispecific antibody, human IgG4, V domains shown)
V domain 1: QVQLQESGPGLVKSSETLSLTCTVSGGSISSSDWWSWVRQPPGKGLEWIGEIDHSGSTNYNPSLMSRVTISVDKSKNQFSLKLSSVTAADTAVYFCARGSWELTDAFDIRGQGTLVTVSS
V domain 2: QVQLVESGGGLVKPGGSLRLSCAASGFTFSDYYMSWIRQAPGKGLEWVSYISSSGSTIYYADSVKGRFTISRDNAKNSLYLQMNSLRAEDTAVYYCARGDAVSITGDYRGQGTLVTVSS
notes: Bispecific heavy chain-only UniAb on silenced, stabilized human IgG4 Fc without CH1, knobs-into-holes; also called BsAb-2; not shown: C-terminal His-tag on the knob chain
For orientation: EC50 (read off the curve) means the midpoint of the concentration-response curve. As for B1, the binding result (in the experiment with IL-9R (R&D Systems); in experiment [1]; with IL-21R (Sino Biological); with IL-4R (Sino Biological); with IL-7R (Sino Biological)) was “no binding (tested: 100 nM antigen)” in each case. In addition, the “EC50 (read off the curve)” value in experiment [2] was about 5 nM.

B2: IL2RB_F09G**IL2RG_F18A (bispecific antibody, human IgG4, V domains shown)
V domain 1: QVQLQESGPGLVKSSETLSLTCTVSGGSISSSDWWSWVRQPPGKGLEWIGEIDHSGSTNYNPSLMSRVTISVDKSKNQFSLKLSSVTAADTAVYFCARGSWELTDAFDIRGQGTLVTVSS
V domain 2: QVQLVESGGDLVKPGGSLRLSCAASGFTFSDYYMSWLRQAPGKELEWVSHISSSGTTTYYADSVEGRFTITRDNAKNSLYLQMNSLRAEDTAVYYCARGAAVAPGFDSRGQGTLVTVSS
notes: Bispecific heavy chain-only UniAb on silenced, stabilized human IgG4 Fc without CH1, knobs-into-holes; also called BsAb-4; not shown: C-terminal His-tag on the knob chain
As for B2, the binding result (in the experiment with IL-9R (R&D Systems); in experiment [1]; with IL-21R (Sino Biological); with IL-4R (Sino Biological); with IL-7R (Sino Biological)) was “no binding (tested: 100 nM antigen)” in each case.

B3: IL2RB_F18E**IL2RG_F16A (bispecific antibody, human IgG4, V domains shown)
V domain 1: QVQLVESGGGVVQPGRSLRLSCAASGFTFSSYGMHWVRQAPGKEREWVAVISYDGSNKYYTDSVKGRFTISRDNSKNTLYLEMNSLRAEDTAVYYCARDLDYDVLTGDPVGGFDIWGQGTLVTVSS
V domain 2: QVQLVESGGGLVKPGGSLRLSCAASGFTFSDYYMSWIRQAPGKGLEWVSSISSSGDTIYYADSVQGRFTLSRDNAENSLFLQMNSLRAEDTAVYYCARGDAVSITGDYRGQGTLVTVSS
notes: Bispecific heavy chain-only UniAb on silenced, stabilized human IgG4 Fc without CH1, knobs-into-holes; also called BsAb-6; not shown: C-terminal His-tag on the knob chain
On to B3, for which the binding result (with IL-9R (R&D Systems); in experiment [1]; with IL-21R (Sino Biological); with IL-4R (Sino Biological); in the experiment with IL-7R (Sino Biological)) was “no binding (tested: 100 nM antigen)” throughout.

B4: IL2RB_F09G**IL2RG_F16C (bispecific antibody, human IgG4, V domains shown)
V domain 1: QVQLQESGPGLVKSSETLSLTCTVSGGSISSSDWWSWVRQPPGKGLEWIGEIDHSGSTNYNPSLMSRVTISVDKSKNQFSLKLSSVTAADTAVYFCARGSWELTDAFDIRGQGTLVTVSS
V domain 2: QVQLVESGGGLVKPGGSLRLSCAASGFTFNDYYMSWIRQAPGKGLEWVSHISSSGSTIYYADSVKGRFTVSRDNANNSLYLQMHSLRAEDTAVYYCARGDAVSITGDYRGQGTLVTVSS
notes: Bispecific heavy chain-only UniAb on silenced, stabilized human IgG4 Fc without CH1, knobs-into-holes; also called BsAb-3; not shown: C-terminal His-tag on the knob chain
Consider B4, for which the binding result (in the experiment with IL-9R (R&D Systems); in experiment [1]; with IL-21R (Sino Biological); in the experiment with IL-4R (Sino Biological); in the experiment with IL-7R (Sino Biological)) was “no binding (tested: 100 nM antigen)” throughout. For the same molecule, the “EC50 (read off the curve)” value in experiment [2] and in experiment [3] was about 6 nM throughout.

B5: IL2RB_F09C**IL2RG_F16A (bispecific antibody, human IgG4, V domains shown)
V domain 1: QVQLQESGPGLVKPSGTLSLTCAVSGGSISSSDWWSWVRQPPGKGLEWIGEIDHSGSTNYNPSLMSRVTISVDKSKNQFSLKLSSVTAADTAVYFCGRGSWELSDAFDIRGQGTLVTVSS
V domain 2: QVQLVESGGGLVKPGGSLRLSCAASGFTFSDYYMSWIRQAPGKGLEWVSSISSSGDTIYYADSVQGRFTLSRDNAENSLFLQMNSLRAEDTAVYYCARGDAVSITGDYRGQGTLVTVSS
notes: Bispecific heavy chain-only UniAb on silenced, stabilized human IgG4 Fc without CH1, knobs-into-holes; also called BsAb-1; not shown: C-terminal His-tag on the knob chain
Take B5: the binding result (with IL-9R (R&D Systems); in experiment [1]; with IL-21R (Sino Biological); with IL-4R (Sino Biological); with IL-7R (Sino Biological)) was “no binding (tested: 100 nM antigen)” each time. The “EC50 (read off the curve)” value in experiment [2] was about 5 nM.
